Source: US20070054353A1, “Nuclear receptor transcriptional corepressor and uses thereof” (priority 2002, published 2007)

T1: PR (Homo sapiens, UniProt P06401)
T1 construct: expressed in transfected cells; host or cells: COS-7
T1 sequence (P06401 1-933): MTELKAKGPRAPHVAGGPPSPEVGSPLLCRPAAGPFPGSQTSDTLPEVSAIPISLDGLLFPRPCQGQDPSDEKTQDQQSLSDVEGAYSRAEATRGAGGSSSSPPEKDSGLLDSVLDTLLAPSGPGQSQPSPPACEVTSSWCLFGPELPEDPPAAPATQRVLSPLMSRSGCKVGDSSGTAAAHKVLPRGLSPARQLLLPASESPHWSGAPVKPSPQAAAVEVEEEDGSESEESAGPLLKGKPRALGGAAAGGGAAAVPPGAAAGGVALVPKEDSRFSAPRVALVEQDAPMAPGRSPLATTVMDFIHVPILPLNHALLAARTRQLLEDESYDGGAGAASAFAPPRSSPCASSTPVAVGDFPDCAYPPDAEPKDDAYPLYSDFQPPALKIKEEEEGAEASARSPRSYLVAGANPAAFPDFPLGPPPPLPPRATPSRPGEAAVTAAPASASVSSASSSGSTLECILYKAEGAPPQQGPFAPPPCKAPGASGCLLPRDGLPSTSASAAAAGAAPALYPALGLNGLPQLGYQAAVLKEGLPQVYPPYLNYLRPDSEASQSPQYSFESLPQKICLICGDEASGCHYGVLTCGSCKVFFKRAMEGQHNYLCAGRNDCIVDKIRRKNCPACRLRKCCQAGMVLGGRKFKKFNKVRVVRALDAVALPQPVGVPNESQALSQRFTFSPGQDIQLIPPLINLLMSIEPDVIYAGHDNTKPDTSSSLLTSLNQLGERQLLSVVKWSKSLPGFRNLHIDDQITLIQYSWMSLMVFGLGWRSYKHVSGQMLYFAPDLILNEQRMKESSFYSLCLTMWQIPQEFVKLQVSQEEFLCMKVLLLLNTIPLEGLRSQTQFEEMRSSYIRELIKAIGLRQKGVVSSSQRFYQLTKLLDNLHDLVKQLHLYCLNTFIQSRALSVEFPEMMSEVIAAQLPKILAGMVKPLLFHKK

T2: VDR (Homo sapiens, UniProt P11473)
T2 construct: expressed in transfected cells; host or cells: COS-7
T2 sequence (P11473 1-427): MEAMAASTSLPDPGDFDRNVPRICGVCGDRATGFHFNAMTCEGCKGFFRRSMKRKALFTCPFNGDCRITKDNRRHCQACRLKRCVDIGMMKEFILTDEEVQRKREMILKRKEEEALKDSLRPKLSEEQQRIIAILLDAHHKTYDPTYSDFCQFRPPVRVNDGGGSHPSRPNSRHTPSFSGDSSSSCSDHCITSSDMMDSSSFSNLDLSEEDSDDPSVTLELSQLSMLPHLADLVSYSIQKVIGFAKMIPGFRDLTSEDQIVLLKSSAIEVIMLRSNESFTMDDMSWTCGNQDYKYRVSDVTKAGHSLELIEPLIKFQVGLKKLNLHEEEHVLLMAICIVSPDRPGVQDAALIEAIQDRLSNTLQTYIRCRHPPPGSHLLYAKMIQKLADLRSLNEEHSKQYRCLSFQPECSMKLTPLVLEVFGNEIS

T3: GR (Homo sapiens, UniProt P04150)
T3 construct: expressed in transfected cells; host or cells: COS-7
T3 sequence (P04150 1-777): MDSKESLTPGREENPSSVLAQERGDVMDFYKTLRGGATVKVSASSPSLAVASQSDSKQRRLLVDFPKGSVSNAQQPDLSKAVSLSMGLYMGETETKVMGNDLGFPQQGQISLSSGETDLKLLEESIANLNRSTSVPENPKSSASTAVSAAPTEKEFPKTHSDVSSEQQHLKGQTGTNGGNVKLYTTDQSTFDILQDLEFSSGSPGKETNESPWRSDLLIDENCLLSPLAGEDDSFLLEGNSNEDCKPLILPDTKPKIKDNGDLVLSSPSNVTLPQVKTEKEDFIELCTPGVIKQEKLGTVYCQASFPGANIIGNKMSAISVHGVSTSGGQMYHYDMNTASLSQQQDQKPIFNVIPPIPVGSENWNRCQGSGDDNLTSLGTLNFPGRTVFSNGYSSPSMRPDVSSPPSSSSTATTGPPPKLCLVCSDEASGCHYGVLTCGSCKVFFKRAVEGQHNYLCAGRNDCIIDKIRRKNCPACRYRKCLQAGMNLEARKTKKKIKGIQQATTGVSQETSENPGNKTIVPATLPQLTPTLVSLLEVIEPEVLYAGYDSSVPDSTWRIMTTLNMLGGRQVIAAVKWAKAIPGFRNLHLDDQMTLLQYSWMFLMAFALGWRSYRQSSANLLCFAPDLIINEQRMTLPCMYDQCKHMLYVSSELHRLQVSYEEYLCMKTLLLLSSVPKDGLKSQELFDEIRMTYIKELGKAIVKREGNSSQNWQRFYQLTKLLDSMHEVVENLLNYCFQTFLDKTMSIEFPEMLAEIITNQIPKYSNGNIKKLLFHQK

T4: ERα (Homo sapiens, UniProt P03372)
T4 construct: expressed in transfected cells; host or cells: COS-7
T4 sequence (P03372 1-595): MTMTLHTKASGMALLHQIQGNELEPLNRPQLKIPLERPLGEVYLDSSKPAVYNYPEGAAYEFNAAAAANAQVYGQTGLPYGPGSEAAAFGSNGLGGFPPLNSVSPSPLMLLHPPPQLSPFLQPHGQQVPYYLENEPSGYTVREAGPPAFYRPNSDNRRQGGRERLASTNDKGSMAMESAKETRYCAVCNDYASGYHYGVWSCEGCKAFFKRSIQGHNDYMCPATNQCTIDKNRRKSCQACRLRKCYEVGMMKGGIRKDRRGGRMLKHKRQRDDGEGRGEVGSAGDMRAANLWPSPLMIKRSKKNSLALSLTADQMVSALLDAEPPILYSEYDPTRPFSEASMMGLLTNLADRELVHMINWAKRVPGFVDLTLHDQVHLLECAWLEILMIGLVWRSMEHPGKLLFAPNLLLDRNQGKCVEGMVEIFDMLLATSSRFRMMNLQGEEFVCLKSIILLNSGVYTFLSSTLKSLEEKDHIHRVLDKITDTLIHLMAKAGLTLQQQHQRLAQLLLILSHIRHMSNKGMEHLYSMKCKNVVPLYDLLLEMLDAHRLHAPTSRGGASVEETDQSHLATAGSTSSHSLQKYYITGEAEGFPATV

T5: interaction of LCoR and ERα (Homo sapiens, UniProt P03372)
T5 construct: expressed in transfected cells; host or cells: COS-7
T5 sequence (P03372 1-595): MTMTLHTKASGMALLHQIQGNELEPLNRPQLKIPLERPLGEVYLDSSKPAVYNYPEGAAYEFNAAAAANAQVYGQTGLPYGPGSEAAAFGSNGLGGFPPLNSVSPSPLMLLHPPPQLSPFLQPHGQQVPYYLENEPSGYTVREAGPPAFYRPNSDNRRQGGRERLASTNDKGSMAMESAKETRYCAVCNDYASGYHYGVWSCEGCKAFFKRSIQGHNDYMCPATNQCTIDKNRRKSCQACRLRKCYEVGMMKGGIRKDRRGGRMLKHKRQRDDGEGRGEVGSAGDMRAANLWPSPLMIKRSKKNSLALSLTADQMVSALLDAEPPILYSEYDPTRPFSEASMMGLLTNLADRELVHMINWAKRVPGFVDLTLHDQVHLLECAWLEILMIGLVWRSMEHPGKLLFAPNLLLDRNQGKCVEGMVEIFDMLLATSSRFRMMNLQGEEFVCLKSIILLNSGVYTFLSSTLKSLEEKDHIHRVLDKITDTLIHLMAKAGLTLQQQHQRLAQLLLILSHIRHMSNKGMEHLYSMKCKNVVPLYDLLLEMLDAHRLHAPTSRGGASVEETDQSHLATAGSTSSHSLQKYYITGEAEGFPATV


How the values were obtained:
Assay type in all cases: cell-based
PR = target: T1, PR; test: Transient transfection luciferase reporter, PR transactivation in COS-7 cells; settings: 1 μg of transfected LCoR, COS-7; one range given for GR, PR and VDR together
Protocol: (§1) All cell lines were cultured under the recommended conditions. COS-7 cells grown in […] in DMEM without phenol red, supplemented with 10% FBS were transfected in medium without serum with lipofectamine 2000 (Invitrogen, Burlington, Ont.) with 100 ng of nuclear receptor expression vectors as indicated, 200 ng of TIF-2 or TIF-2.1, as indicated, 250 ng of reporter plasmid, 250 ng of infemal control vector pCMV-βgal, and various concentrations of LCoR/pSG5 or LCoR-LSKAA/pSG5 expression vectors and pSG5 carrier. Medium was replaced 24 h after transfection by a medium containing charcoal-stripped serum and ligand (100 nM) and TSA (3 μM) for 18 h, as indicated. Cells were harvested in 200 […] of reporter lysis buffer (Promega).
(§2) COS-7 cells were cotransfected with expression vectors for ERα HEG0 (A and C) or GR (D) or PR (F) or VDR (H), ERE3-TATA-pXP2 (A and C), GRE5/pXP2 (D and F) or VDRE3tk/pXP2 (H) luciferase reporter vectors, pCMV-β-gal as internal control, and LCoR/pSG5 or LSKAA/pSG5 expression vectors as indicated. Cells were treated with 10^−7M of hormones (solid bars) or vehicle (open bars). Normalized luciferase activities (RLU) are the means±SEM from at least 3 experiments. […] Cells were transfected as in FIG. 5A with LCoR, TIF-2 or TIF2.1 as indicated. […]

VDR = target: T2, VDR; test: Transient transfection luciferase reporter, VDR transactivation in COS-7 cells; settings: 1 μg of transfected LCoR, COS-7; one range given for GR, PR and VDR together
Protocol: as §1, §2

GR = target: T3, GR; test: Transient transfection luciferase reporter, GR transactivation in COS-7 cells; settings: 1 μg of transfected LCoR, COS-7; one range given for GR, PR and VDR together
Protocol: as §1, §2

5×17 mer-tk promoter = test: GAL4-LCoR repression of 5×17 mer-tk promoter in COS-7 cells
Protocol: as §1, §2

nuclear receptors = test: Ligand-dependent transactivation by nuclear receptors (summary)
Protocol: as §1, §2

ERα = target: T4, ERα; test: Transient transfection luciferase reporter, ERα transactivation in COS-7 cells; settings: coexpression in COS-7 cells, 10^−7M hormone, ERE3-TATA-pXP2 reporter
Protocol: as §1, §2

[1] = target: T5, interaction of LCoR and ERα; test: BRET assay of LCoR-ERα interaction in living COS-7 cells; settings: rluc-LCoR-LSKAA versus rluc-LCoR, COS-7 cells
Protocol: Readings were started immediately after coelenterazine H addition, and 10 repeated measures were taken.
Interaction of ERα and LCoR in vivo was further tested by bioluminescence resonance energy transfer (BRET) in living COS-7 cells transiently cotransfected with plasmids expressing ERα-EYFP and LCoR-rluc fusion proteins. […] BRET ratios were calculated as described in experimental procedures.

Molecule	repression of ligand-activated transcription, progesterone receptor (PR)	repression of ligand-activated transcription, vitamin D receptor (VDR)	repression of ligand-activated transcription, glucocorticoid receptor (GR)	effect on the 5×17 mer-tk promoter (5×17 mer-tk promoter)	inhibition of ligand-dependent transactivation by nuclear receptors (nuclear receptors)	repression of hormone-dependent transactivation by ERα (ERα)	effect of NR box mutation on interaction with ERα (BRET) [1]
LCoR: novel 433 amino acid nuclear receptor corepressor polypeptide (SEQ ID NO:2) with a single LXXLL NR box (protein, listed as Homo sapiens) MQRMIQQFAAEYTSKNSSTQDPSQPNSTKNQSLPKASPVTTSPTAATTQNPVLSKLLMADQDSPLDLTVRKSQSEPSEQDGVLDLSTKKSPCAGSTSLSHSPGCSSTQGNGRPGRPSQYRPDGLRSGDGVPPRSLQDGTREGFGHSTSLKVPLARSLQISEELLSRNQLSTAASLGPSGLQNHGQHLILSREASWAKPHYEFNLSRMKFRGNGALSNISDLPFLAENSAFPKMALQAKQDGKKDVSHSSPVDLKIPQVRGMDLSWESRTGDQYSYSSLVMGSQTESALSKKLRAILPKQSRKSMLDAGPDSWGSDAEQSTPGQPYPTSDQEGDPGSKQPRKKRGRYRQYNSEILEEAISVVMSGKMSVSKAQSIYGIPHSTLEYKVKERLGTLKNPPKKKMKLMRSEGPDVSVKIELDPQGEAAQSANESKNE	2.2-5 fold	2.2-5 fold	2.2-5 fold	had no effect	up to 5 fold	dose-dependent repression	–
LCoR-LSKAA: LCoR with point mutagenesis of NR box LSKLL to LSKAA at position 53 (protein) MQRMIQQFAAEYTSKNSSTQDPSQPNSTKNQSLPKASPVTTSPTAATTQNPVLSKAAMADQDSPLDLTVRKSQSEPSEQDGVLDLSTKKSPCAGSTSLSHSPGCSSTQGNGRPGRPSQYRPDGLRSGDGVPPRSLQDGTREGFGHSTSLKVPLARSLQISEELLSRNQLSTAASLGPSGLQNHGQHLILSREASWAKPHYEFNLSRMKFRGNGALSNISDLPFLAENSAFPKMALQAKQDGKKDVSHSSPVDLKIPQVRGMDLSWESRTGDQYSYSSLVMGSQTESALSKKLRAILPKQSRKSMLDAGPDSWGSDAEQSTPGQPYPTSDQEGDPGSKQPRKKRGRYRQYNSEILEEAISVVMSGKMSVSKAQSIYGIPHSTLEYKVKERLGTLKNPPKKKMKLMRSEGPDVSVKIELDPQGEAAQSANESKNE	–	–	–	–	–	had no effect	largely disrupted hormone-dependent interaction and reduced hormone-independent interaction of the two proteins by approximately two-fold
